In experiment [1] the target is T1, ZTNF4 (Homo sapiens (Human), UniProt Q9Y275 134-285, limits assumed, radioiodinated with 125I (Iodobeads) in the binding assays; unlabeled ZTNF4 used to determine nonspecific binding).
T1 construct: also called BAFF
Briefly: competitive binding: TACI-Fc against plate-coated TACI-N for 125I-ZTNF4. As to the method:
(§1) An N-terminal fragment of the TACI receptor, designated as “TACI-N,” was added to 96-well plates (100 μl at 0.1 μg/ml), and incubated overnight at 4° C. The plates were washed, blocked with Superblock (Pierce), and washed again. […] After incubation, the plates were washed and counted. Each determination was performed in triplicate.

Experiment [2] addresses T1, ZTNF4. Briefly: solution binding: 0.05 nM TACI-Fc with 0.4 pM to 1.5 nM 125I-ZTNF4, Pansorbin precipitation. The procedure:
At a concentration of 0.05 nM, each TACI-Fc construct was incubated with 0.4 pM to 1.5 nM ¹²⁵I-ZTNF4 for 30 minutes at room temperature in a total volume of 0.25 ml/tube. A Pansorbin (Staph A) suspension was added to each tube, and after 15 minutes, the samples were centrifuged, washed twice, and the pellets counted. Nonspecific binding was determined by the addition of 130 nM unlabeled ZTNF4 to the ¹²⁵I-ZTNF4/TACI-Fc mix. Specific binding was calculated by subtracting the cpm bound in the presence of unlabeled ZTNF4 from the total cpm bound at each concentration of ¹²⁵I-ZTNF4. Each determination was performed in triplicate. Binding constants were calculated using GraphPad Prism software (MacIntosh v. 3.0).

The target in experiment [3] is T1, ZTNF4. Briefly: competitive binding: TACI-Fc against plate-coated TACI-N for 125I-ZTNF4 (20 ng/ml); average of three experiments. As to the method:
as §1

B1: TACI (d1-29)-Fc5 (Fc fusion)
chain: AMRSCPEEQYWDPLLGTCMSCKTICNHQSQRTCAAFCRSLSCRKEQGKFYDHLLRDCISCASICGQHPKQCAYFCENKLRSPVNLPPELRRQRSGEVENNSDNSGRYQGLEHRGSEASPALPGLKEPKSSDKTHTCPPCPAPEAEGAPSVFLFPPKPKDTLMISRTPEVTCVVVDVSHEDPEVKFNWYVDGVEVHNAKTKPREEQYNSTYRVVSVLTVLHQDWLNGKEYKCKVSNKALPSSIEKTISKAKGQPREPQVYTLPPSRDELTKNQVSLTCLVKGFYPSDIAVEWESNGQPENNYKTTPPVLDSDGSFFLYSKLTVDKSRWQQGNVFSCSVMHEALHNHYTQKSLSLSPGK
notes: Made in CHO DG44 cells
Broadly, the Kd is the concentration at which binding is half-saturated. In general, IC50 refers to the midpoint of a concentration-inhibition curve. A low value points to inhibition by little substance. For B1, the “concentration giving complete inhibition” value with ZTNF4 [1] is roughly 100 ng/mL. Besides, in the experiment with ZTNF4 [2], the Bmax was determined as 0.023 nM and binding was characterised by a dissociation constant (Kd) of 0.134 nM. In the experiment with ZTNF4 [3], the IC50 was 2.07 nM.

B2: TACI (d1-29, d120-154)-Fc5 (Fc fusion)
chain: AMRSCPEEQYWDPLLGTCMSCKTICNHQSQRTCAAFCRSLSCRKEQGKFYDHLLRDCISCASICGQHPKQCAYFCENKLRSPVNLPPELREPKSSDKTHTCPPCPAPEAEGAPSVFLFPPKPKDTLMISRTPEVTCVVVDVSHEDPEVKFNWYVDGVEVHNAKTKPREEQYNSTYRVVSVLTVLHQDWLNGKEYKCKVSNKALPSSIEKTISKAKGQPREPQVYTLPPSRDELTKNQVSLTCLVKGFYPSDIAVEWESNGQPENNYKTTPPVLDSDGSFFLYSKLTVDKSRWQQGNVFSCSVMHEALHNHYTQKSLSLSPGK
Take B2: in the experiment with ZTNF4 [1], the “concentration giving complete inhibition” value was roughly 100 ng/mL. In the experiment with ZTNF4 [2], this molecule came in with a Bmax of 0.021 nM and a Kd of 0.092 nM. Besides, in the experiment with ZTNF4 [3], the IC50 was found to be 2.21 nM.

B3: TACI (d1-29, d111-154)-Fc5 (Fc fusion)
chain: AMRSCPEEQYWDPLLGTCMSCKTICNHQSQRTCAAFCRSLSCRKEQGKFYDHLLRDCISCASICGQHPKQCAYFCENKLRSEPKSSDKTHTCPPCPAPEAEGAPSVFLFPPKPKDTLMISRTPEVTCVVVDVSHEDPEVKFNWYVDGVEVHNAKTKPREEQYNSTYRVVSVLTVLHQDWLNGKEYKCKVSNKALPSSIEKTISKAKGQPREPQVYTLPPSRDELTKNQVSLTCLVKGFYPSDIAVEWESNGQPENNYKTTPPVLDSDGSFFLYSKLTVDKSRWQQGNVFSCSVMHEALHNHYTQKSLSLSPGK
For B3, the “concentration giving complete inhibition” value in the experiment with ZTNF4 [1] is roughly 100 ng/mL. In addition, in the experiment with ZTNF4 [2], the Bmax worked out at 0.018 nM and binding was characterised by a dissociation constant (Kd) of 0.115 nM. In the experiment with ZTNF4 [3], this molecule had an IC50 of 2.31 nM.

B4: TACI (d1-29, d107-154)-Fc5 (Fc fusion)
chain: AMRSCPEEQYWDPLLGTCMSCKTICNHQSQRTCAAFCRSLSCRKEQGKFYDHLLRDCISCASICGQHPKQCAYFCENEPKSSDKTHTCPPCPAPEAEGAPSVFLFPPKPKDTLMISRTPEVTCVVVDVSHEDPEVKFNWYVDGVEVHNAKTKPREEQYNSTYRVVSVLTVLHQDWLNGKEYKCKVSNKALPSSIEKTISKAKGQPREPQVYTLPPSRDELTKNQVSLTCLVKGFYPSDIAVEWESNGQPENNYKTTPPVLDSDGSFFLYSKLTVDKSRWQQGNVFSCSVMHEALHNHYTQKSLSLSPGK
Regarding B4, the “concentration giving complete inhibition” value with ZTNF4 [1] is roughly 100 ng/mL. In the experiment with ZTNF4 [2], this molecule came in with a Bmax of 0.01 nM and a Kd of 0.121 nM. The molecule also yielded an IC50 in the experiment with ZTNF4 [3] of 4.95 nM.

These data come from US20030103986A1 (ZymoGenetics, published 2003).
